According to publication PMC2756588:

T1: Myo5, Q04439
T1 sequence (Q04439 1072-1160, looked up): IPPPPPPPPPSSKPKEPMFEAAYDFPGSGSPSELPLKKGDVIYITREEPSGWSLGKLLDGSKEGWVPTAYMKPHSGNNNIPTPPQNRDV

T2: Sla1-3, P32790
T2 sequence (P32790 344-424, looked up): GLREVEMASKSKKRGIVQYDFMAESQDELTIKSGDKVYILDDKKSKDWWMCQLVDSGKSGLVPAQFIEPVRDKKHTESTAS

T3: Hse1, P38753
T3 sequence (P38753 208-285, looked up): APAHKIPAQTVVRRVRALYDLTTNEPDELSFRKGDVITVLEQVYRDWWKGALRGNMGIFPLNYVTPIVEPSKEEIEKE

T4: Pex13, P80667
T4 sequence (P80667 295-386, looked up): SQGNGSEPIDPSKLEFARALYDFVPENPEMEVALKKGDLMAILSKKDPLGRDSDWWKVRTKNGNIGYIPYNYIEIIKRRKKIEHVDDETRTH

T5: Bzz1-2, P38822
T5 sequence (P38822 568-633, looked up): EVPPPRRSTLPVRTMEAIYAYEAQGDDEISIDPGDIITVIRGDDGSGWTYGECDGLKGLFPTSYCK

T6: Lsb4, P32793
T6 sequence (P32793 402-468, looked up): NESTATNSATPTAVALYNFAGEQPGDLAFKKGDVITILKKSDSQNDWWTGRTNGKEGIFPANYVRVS

T7: Nbp2, Q12163
T7 sequence (Q12163 103-180, looked up): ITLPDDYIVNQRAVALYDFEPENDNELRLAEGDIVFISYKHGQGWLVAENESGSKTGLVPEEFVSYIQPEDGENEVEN

T8: Bbc1, P47068
T8 sequence (P47068 1-78, looked up): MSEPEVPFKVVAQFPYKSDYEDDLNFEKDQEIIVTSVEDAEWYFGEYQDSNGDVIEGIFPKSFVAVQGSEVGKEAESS

T9: Cdc25, P04821
T9 sequence (P04821 50-136, looked up): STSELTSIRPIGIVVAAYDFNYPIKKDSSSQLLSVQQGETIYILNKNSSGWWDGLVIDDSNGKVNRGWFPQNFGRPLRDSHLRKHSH

T10: Pin3, Q06449
T10 sequence (Q06449 53-122, looked up): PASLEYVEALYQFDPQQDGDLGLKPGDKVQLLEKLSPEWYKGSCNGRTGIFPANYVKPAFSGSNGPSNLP

T11: Boi2, P39969
T11 sequence (P39969 32-116, looked up): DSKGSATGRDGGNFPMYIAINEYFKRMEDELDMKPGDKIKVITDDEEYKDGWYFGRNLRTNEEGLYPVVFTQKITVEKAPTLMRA

T12: Lsb1, P53281
T12 sequence (P53281 45-122, looked up): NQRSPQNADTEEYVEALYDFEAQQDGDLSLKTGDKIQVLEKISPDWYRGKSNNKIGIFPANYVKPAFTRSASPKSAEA

T13: Bud14, P27637
T13 sequence (P27637 247-328, looked up): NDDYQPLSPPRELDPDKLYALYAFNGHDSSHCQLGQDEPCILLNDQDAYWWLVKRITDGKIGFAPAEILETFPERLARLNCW

T14: Abp1, P15891
T14 sequence (P15891 535-592, looked up): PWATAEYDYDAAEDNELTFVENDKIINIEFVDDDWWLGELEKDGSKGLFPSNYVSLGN

T15: Boi1, P38041
T15 sequence (P38041 1-86, looked up): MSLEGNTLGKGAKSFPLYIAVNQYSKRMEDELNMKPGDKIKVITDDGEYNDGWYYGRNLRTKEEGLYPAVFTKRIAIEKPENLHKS

T16: Bzz1-1, P38822
T16 sequence (P38822 478-572, looked up): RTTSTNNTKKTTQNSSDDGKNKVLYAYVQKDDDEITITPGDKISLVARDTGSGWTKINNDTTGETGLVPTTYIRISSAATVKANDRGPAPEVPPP

T17: Lsb3, P43603
T17 sequence (P43603 385-451, looked up): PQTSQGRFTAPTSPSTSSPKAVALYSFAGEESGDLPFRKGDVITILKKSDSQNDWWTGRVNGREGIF

T18: Hof1, Q05080
T18 sequence (Q05080 590-669, looked up): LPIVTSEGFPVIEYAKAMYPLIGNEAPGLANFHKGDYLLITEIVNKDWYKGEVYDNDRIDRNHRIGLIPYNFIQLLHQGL

T19: Cyk3, Q07533
T19 sequence (Q07533 1-83, looked up): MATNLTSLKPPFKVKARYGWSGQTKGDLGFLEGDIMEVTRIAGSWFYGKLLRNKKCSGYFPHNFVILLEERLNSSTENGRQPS

T20: Sla1-2, P32790
T20 sequence (P32790 60-140, looked up): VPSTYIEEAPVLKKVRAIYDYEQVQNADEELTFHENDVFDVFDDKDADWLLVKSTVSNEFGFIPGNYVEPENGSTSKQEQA

T21: Fus1, P11710
T21 sequence (P11710 432-512, looked up): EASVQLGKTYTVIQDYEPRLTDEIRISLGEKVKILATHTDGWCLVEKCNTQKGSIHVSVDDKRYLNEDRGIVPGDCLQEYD


Key:
Assay in all cases: SPOT array
Myo5, Q04439 = biological target: T1, Myo5, Q04439; conditions: median of control spots 471
Sla1-3, P32790 = biological target: T2, Sla1-3, P32790; conditions: median of control spots 5475
Hse1, P38753 = biological target: T3, Hse1, P38753; conditions: median of control spots 1727
Pex13, P80667 = biological target: T4, Pex13, P80667; conditions: median of control spots 1341
Bzz1-2, P38822 = biological target: T5, Bzz1-2, P38822; conditions: median of control spots 4538
Lsb4, P32793 = biological target: T6, Lsb4, P32793; conditions: median of control spots 397
Bem1-2, P29366 = conditions: median of control spots 4347
Nbp2, Q12163 = biological target: T7, Nbp2, Q12163; conditions: median of control spots 357
Bbc1, P47068 = biological target: T8, Bbc1, P47068; conditions: median of control spots 796
Cdc25, P04821 = biological target: T9, Cdc25, P04821; conditions: median of control spots 969
Pin3, Q06449 = biological target: T10, Pin3, Q06449; conditions: median of control spots 2171
Boi2, P39969 = biological target: T11, Boi2, P39969; conditions: median of control spots 1161
GST = conditions: median of control spots 978
Lsb1, P53281 = biological target: T12, Lsb1, P53281; conditions: median of control spots 388
Bud14, P27637 = biological target: T13, Bud14, P27637; conditions: median of control spots 956
Abp1, P15891 = biological target: T14, Abp1, P15891; conditions: median of control spots 935
Boi1, P38041 = biological target: T15, Boi1, P38041; conditions: median of control spots 1162
Myo3, P36006 = conditions: median of control spots 468
Bzz1-1, P38822 = biological target: T16, Bzz1-1, P38822; conditions: median of control spots 4446
Lsb3, P43603 = biological target: T17, Lsb3, P43603; conditions: median of control spots 406
Bem1-1, P29366 = conditions: median of control spots 4282
Hof1, Q05080 = biological target: T18, Hof1, Q05080; conditions: median of control spots 4086
Cyk3, Q07533 = biological target: T19, Cyk3, Q07533; conditions: median of control spots 1451
Rvs167, P39743 = conditions: median of control spots 2707
Sho1, P40073 = conditions: median of control spots 1148
Sla1-2, P32790 = biological target: T20, Sla1-2, P32790; conditions: median of control spots 712
Fus1, P11710 = biological target: T21, Fus1, P11710; conditions: median of control spots 1200

Sho1, P40073, sequence (P40073 287-367): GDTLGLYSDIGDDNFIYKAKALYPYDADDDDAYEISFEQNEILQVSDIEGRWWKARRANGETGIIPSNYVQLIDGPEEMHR
Rvs167, P39743, sequence (P39743 419-482): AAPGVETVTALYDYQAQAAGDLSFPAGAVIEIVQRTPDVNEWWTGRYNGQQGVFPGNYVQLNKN
Bem1-2, P29366, sequence (P29366 139-227): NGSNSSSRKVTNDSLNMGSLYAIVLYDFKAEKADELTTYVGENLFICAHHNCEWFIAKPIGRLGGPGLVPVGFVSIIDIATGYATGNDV
Bem1-1, P29366, sequence (P29366 55-141): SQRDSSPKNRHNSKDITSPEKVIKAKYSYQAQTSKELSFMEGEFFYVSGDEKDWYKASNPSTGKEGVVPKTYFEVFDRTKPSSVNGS

SPOT intensity (Myo5, Q04439) | SPOT intensity (Sla1-3, P32790) | SPOT intensity (Hse1, P38753) | SPOT intensity (Pex13, P80667) | SPOT intensity (Bzz1-2, P38822) | SPOT intensity (Lsb4, P32793) | SPOT intensity (Bem1-2, P29366) | SPOT intensity (Nbp2, Q12163) | SPOT intensity (Bbc1, P47068) | SPOT intensity (Cdc25, P04821) | SPOT intensity (Pin3, Q06449) | SPOT intensity (Boi2, P39969) | SPOT intensity (GST) | SPOT intensity (Lsb1, P53281) | SPOT intensity (Bud14, P27637) | SPOT intensity (Abp1, P15891) | SPOT intensity (Boi1, P38041) | SPOT intensity (Myo3, P36006) | SPOT intensity (Bzz1-1, P38822) | SPOT intensity (Lsb3, P43603) | Binder | other results
21 | 3 | 22 | 133 | 0 | 373 | 3 | 1 | 247 | 0 | 55 | 0 | 0 | 1590 | 0 | 24 | 0 | 63 | 3 | 658 | SRQAIPPPVPNRPGG | SPOT intensity (Bem1-1, P29366): 1; SPOT intensity (Hof1, Q05080): 1; SPOT intensity (Cyk3, Q07533): 1; SPOT intensity (Rvs167, P39743): 833; SPOT intensity (Sho1, P40073): 14; SPOT intensity (Sla1-2, P32790): 0; SPOT intensity (Fus1, P11710): 1
0 | 12 | 0 | 91 | 0 | 231 | 0 | 2 | 6 | 0 | 23 | 0 | 0 | 1310 | 0 | 17 | 0 | 0 | 0 | 125 | DAPASKPSVPPRNYF | SPOT intensity (Bem1-1, P29366): 0; SPOT intensity (Hof1, Q05080): 0; SPOT intensity (Cyk3, Q07533): 1; SPOT intensity (Rvs167, P39743): 58; SPOT intensity (Sho1, P40073): 0; SPOT intensity (Sla1-2, P32790): 0; SPOT intensity (Fus1, P11710): 0
0 | 2 | 3 | 3 | 3 | 5 | 0 | 6 | 15 | 35 | 8 | 2 | 36 | 84 | 20 | 23 | 7 | 1 | 3 | 0 | NLDRSKISLPDFDDE | SPOT intensity (Bem1-1, P29366): 3; SPOT intensity (Hof1, Q05080): 8; SPOT intensity (Cyk3, Q07533): 4; SPOT intensity (Rvs167, P39743): 6; SPOT intensity (Sho1, P40073): 16; SPOT intensity (Sla1-2, P32790): 1; SPOT intensity (Fus1, P11710): 4
0 | 1 | 22 | 375 | 0 | 222 | 1 | 1 | 196 | 0 | 48 | 0 | 0 | 948 | 2 | 7 | 1 | 8 | 2 | 453 | AIPPPVPNRPGGTTN | SPOT intensity (Bem1-1, P29366): 1; SPOT intensity (Hof1, Q05080): 1; SPOT intensity (Cyk3, Q07533): 2; SPOT intensity (Rvs167, P39743): 1430; SPOT intensity (Sho1, P40073): 0; SPOT intensity (Sla1-2, P32790): 0; SPOT intensity (Fus1, P11710): 0
1 | 2 | 4 | 0 | 0 | 0 | 1 | 4 | 30 | 16 | 4 | 0 | 2 | 576 | 19 | 18 | 3 | 1 | 0 | 0 | NQARKPFLLPATELS | SPOT intensity (Bem1-1, P29366): 0; SPOT intensity (Hof1, Q05080): 5; SPOT intensity (Cyk3, Q07533): 3; SPOT intensity (Rvs167, P39743): 0; SPOT intensity (Sho1, P40073): 38; SPOT intensity (Sla1-2, P32790): 1; SPOT intensity (Fus1, P11710): 0
1 | 5 | 2 | 6 | 0 | 0 | 1 | 2 | 0 | 0 | 151 | 0 | 0 | 2060 | 4 | 3 | 0 | 1 | 2 | 2 | FYNRTAFQLPGDARV | SPOT intensity (Bem1-1, P29366): 0; SPOT intensity (Hof1, Q05080): 0; SPOT intensity (Cyk3, Q07533): 0; SPOT intensity (Rvs167, P39743): 0; SPOT intensity (Sho1, P40073): 4; SPOT intensity (Sla1-2, P32790): 0; SPOT intensity (Fus1, P11710): 0
